Experimental data as given in patent publication US20210292422A1 (SURROZEN, published 2021).
Blank lines part the entries; values can stand above or below the binder they belong to.

Tests used:
LRP6e1e2 = molecular target: T1, LRP6e1e2 (UniProt O75581 20-630); assay: column 'Specificity (Clone name)' of the component table; method not given there
T1 construct: domain: e1e2; also called LRP6 E1E2 domains
T1 sequence (looked up): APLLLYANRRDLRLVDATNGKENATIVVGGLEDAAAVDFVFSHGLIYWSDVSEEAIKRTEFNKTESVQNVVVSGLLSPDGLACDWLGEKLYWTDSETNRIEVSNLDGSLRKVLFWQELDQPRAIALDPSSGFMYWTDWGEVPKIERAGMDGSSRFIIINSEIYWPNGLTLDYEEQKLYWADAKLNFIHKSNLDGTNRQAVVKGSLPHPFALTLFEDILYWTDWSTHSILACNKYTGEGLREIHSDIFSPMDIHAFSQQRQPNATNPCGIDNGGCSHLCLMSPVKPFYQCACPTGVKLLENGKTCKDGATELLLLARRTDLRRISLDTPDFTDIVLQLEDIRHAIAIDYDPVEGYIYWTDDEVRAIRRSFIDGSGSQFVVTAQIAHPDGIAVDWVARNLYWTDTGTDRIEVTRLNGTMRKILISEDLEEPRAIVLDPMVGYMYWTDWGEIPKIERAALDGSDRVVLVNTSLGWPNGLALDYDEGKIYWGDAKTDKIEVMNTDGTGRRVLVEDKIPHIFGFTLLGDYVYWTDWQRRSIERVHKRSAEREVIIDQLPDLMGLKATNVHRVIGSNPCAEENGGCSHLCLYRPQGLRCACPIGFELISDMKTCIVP

Frizzled 7 (Fzd7) = Frizzled 7 (Fzd7) (UniProt O75084 44-163); assay: BLI (Octet), FIG. 15A
Fzd7 CRD = Fzd7 CRD (UniProt O75084 44-163); assay: BLI (Octet Red 96), biotinylated Fzd7 CRD on SA biosensor
Experimental: Following capture of biotinylated-Fzd7, the SA biosensor with captured biotinylated-Fzd7 was dipped into wells containing the relevant antibodies at 7 different concentrations in running buffer plus a well with only running buffer as a reference channel. KD was determined by global fitting.

LRP6e3e4 = molecular target: T2, LRP6e3e4 (UniProt O75581 631-1246); assay: column 'Specificity (Clone name)' of the component table; method not given there
T2 construct: domain: e3e4; also called LRP6 E3E4 domain
T2 sequence (looked up): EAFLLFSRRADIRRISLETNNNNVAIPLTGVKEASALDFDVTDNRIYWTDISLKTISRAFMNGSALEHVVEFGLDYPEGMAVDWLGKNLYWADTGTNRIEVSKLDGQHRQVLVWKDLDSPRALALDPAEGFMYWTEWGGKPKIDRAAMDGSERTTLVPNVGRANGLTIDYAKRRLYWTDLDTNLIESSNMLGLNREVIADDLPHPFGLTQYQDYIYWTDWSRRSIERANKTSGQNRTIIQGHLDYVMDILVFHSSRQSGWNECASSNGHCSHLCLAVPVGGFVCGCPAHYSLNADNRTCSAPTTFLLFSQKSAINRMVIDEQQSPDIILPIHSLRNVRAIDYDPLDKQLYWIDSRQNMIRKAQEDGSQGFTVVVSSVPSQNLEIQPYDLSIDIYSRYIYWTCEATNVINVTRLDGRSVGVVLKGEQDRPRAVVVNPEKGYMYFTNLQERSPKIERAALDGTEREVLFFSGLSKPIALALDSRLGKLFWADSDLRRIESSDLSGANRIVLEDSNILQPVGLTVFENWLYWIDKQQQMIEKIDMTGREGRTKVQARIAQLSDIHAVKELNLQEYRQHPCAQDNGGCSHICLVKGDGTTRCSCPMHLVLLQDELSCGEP

binding result (LRP6e1e2): binds
B1: L1: antiLRP6E1E2 (1115.3) scFv (scFv)
scFv: DVKLVESGGGLVKLGGSLRLSCAASGFSFSTSYMSWVRQTPEKRLELVAAINLNGGSTYYSDTVKGRFTISRDNAKNTLYLQMSSLKSEDTAFYYCASELAGYGTPFAYWGQGTLVTVSAGSAASGSSGGSSSGADIVLTQSPATLSVTPGDSVSLSCKASQSISYNLHWYQQKSHESPRLLIKYTSQSISGIPSRFSGSGSGTDFTLTINNVETEDFGMYFCQQSNSWPLTFGAGTKLEVK

binding result (Frizzled 7 (Fzd7)): binds
B2: F2 (R2H1) (scFv)
scFv: EVQLVESGGGLVQPGGSLRLSCAASGFNISSSYIHWVRQAPGKGLEWVAYIYSSYGSTYYADSVKGRFTISADTSKNTAYLQMNSLRAEDTAVYYCARASWYALDYWGQGTLVTVSSGSAASGSSGGSSSGADIQMTQSPSSLSASVGDRVTITCRASQSVSSAVAWYQQKPGKAPKLLIYSASSLYSGVPSRFSGSRSGTDFTLTISSLQPEDFATYYCQQYWYGVAPITFGQGTKVEIK
notes: also called antiFZD1,2,7

binding result (Fzd7 CRD): no binding
B3: 1291-3 (bispecific antibody, human IgG1, kappa, L234A L235A)
light: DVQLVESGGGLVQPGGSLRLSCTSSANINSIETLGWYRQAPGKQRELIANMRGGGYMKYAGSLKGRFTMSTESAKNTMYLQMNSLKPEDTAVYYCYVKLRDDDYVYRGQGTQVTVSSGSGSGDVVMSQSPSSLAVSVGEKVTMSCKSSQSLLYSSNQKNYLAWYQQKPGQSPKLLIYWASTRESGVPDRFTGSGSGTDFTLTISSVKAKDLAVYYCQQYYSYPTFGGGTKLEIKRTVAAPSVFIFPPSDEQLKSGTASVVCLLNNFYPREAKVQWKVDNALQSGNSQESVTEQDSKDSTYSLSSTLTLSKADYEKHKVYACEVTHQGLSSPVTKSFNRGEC
heavy: EVQLVESGGGLVKPGGSLKLSCAASGFTFSSYAMSWVRQTPEKRLEWVATISDGGSYTRYPDKLKGRFTISRDNAKNNLYLQMSHLKSEDTAMYYCARVGGRRDYFDYWGQGTTLTVSSASTKGPSVFPLAPSSKSTSGGTAALGCLVKDYFPEPVTVSWNSGALTSGVHTFPAVLQSSGLYSLSSVVTVPSSSLGTQTYICNVNHKPSNTKVDKKVEPKSCDKTHTCPPCPAPEAAGGPSVFLFPPKPKDTLMISRTPEVTCVVVDVSHEDPEVKFNWYVDGVEVHNAKTKPREEQYNSTYRVVSVLTVLHQDWLNGKEYKCKVSNKALGAPIEKTISKAKGQPREPQVYTLPPSREEMTKNQVSLTCLVKGFYPSDIAVEWESNGQPENNYKTTPPVLDSDGSFFLYSKLTVDKSRWQQGNVFSCSVMHEALHNHYTQKSLSLSPGK

binding result (LRP6e3e4): binds
B4: L2: antiLRP6E3E4 (G211) scFv (scFv)
scFv: EVQLVESGGGLVQPGGSLRLSCAASGFTFTSYYISWVRQAPGKGLEWVAEISPYSGSTYYADSVKGRFTISADTSKNTAYLQMNSLRAEDTAVYYCALRARPPIRLHPRGSVMDYWGQGTLVTVSSGSAASGSSGGSSSGADIQMTQSPSSLSASVGDRVTITCRASQDVSTAVAWYQQKPGKAPKLLIYSASFLYSGVPSRFSGSGSGTDFTLTISSLQPEDFATYYCQQSYTTPPTFGQGTKVEIK
notes: also called YW211.31.57

binding result (Fzd7 CRD): no binding
B5: 1791-3 (bispecific antibody, human IgG1, kappa, L234A L235A)
light: DVQLVESGGGLVQPGGSLRLSCTSSANINSIETLGWYRQAPGKQRELIANMRGGGYMKYAGSLKGRFTMSTESAKNTMYLQMNSLKPEDTAVYYCYVKLRDDDYVYRGQGTQVTVSSGSGSGDIVMTQSPKSMSMSVGERVTLRCKASENVLNYVSWYQQKPEQSPKLLIYGASNRYTGVPDRFTGSGSATDFTLTISSVQAEDLADYHCGQSYRYPTFGAGTKLELKRTVAAPSVFIFPPSDEQLKSGTASVVCLLNNFYPREAKVQWKVDNALQSGNSQESVTEQDSKDSTYSLSSTLTLSKADYEKHKVYACEVTHQGLSSPVTKSFNRGEC
heavy: EVQPVESGGGLVQPKGSLKLSCAASGFTFNTYAMHWVRQAPGKGLEWVARIRSKSNNYAKNYDDSVKDRFTISRDDSQSMLYLQMNNLKTEDTAMYYCVRENYGGRFDYWGQGTTLTVSSASTKGPSVFPLAPSSKSTSGGTAALGCLVKDYFPEPVTVSWNSGALTSGVHTFPAVLQSSGLYSLSSVVTVPSSSLGTQTYICNVNHKPSNTKVDKKVEPKSCDKTHTCPPCPAPEAAGGPSVFLFPPKPKDTLMISRTPEVTCVVVDVSHEDPEVKFNWYVDGVEVHNAKTKPREEQYNSTYRVVSVLTVLHQDWLNGKEYKCKVSNKALGAPIEKTISKAKGQPREPQVYTLPPSREEMTKNQVSLTCLVKGFYPSDIAVEWESNGQPENNYKTTPPVLDSDGSFFLYSKLTVDKSRWQQGNVFSCSVMHEALHNHYTQKSLSLSPGK
